Test results published in US20260234121A1, “DERIVATIVES, IMMUNOGENS, AND ANTIBODIES AND USE OF THE SAME IN DETECTION OF ECSTASY-CLASS COMPOUNDS” (Siemens Healthcare Diagnostics Inc., priority 2023, published 2026).
Substitutions are numbered along the chain they refer to.

B1: 178K 1B2 mAb: mouse monoclonal antibody raised against E1-KLH (56); IgG2b, κ; heavy chain SEQ ID NO 84, light chain SEQ ID NO 108 (antibody)
heavy: MNFGLSLIFLALILKGVQCEVQLVESGGDLVKPGGSLKLSCAASGFTFTNYVMSWVRQTPDKRLEWVATINSGGRYAYYPDSVKGRFTISRDNAKNTLYLQMSSLKSEDTAMYYCAGGNNLDYWGQGTTLTVSSAKTTPPSVYPLAPGCGDTTGSSVTLGCLVKGYFPESVTVTWNSGSLSSSVHTFPALLQSGLYTMSSSVTVPSSTWLSQTVTCSVAHPASSTTVDKKLEPSGPISTIKPCPPCKECHKCPAPNLEGGPSVFIFPPNIKDVLMISLTPKVTCVVVDVSEDDPDVQISWFVNNVEVHTAQTQTHREDYNSTIRVVSALPIQHQDWMSGKEFKCKVNNKDLPSPIERTISKIKGLVRAPQVYILPPPAEQLSRKDVSLTCLVVGFNPGDISVEWTSNGHTEENYKDTAPILDSDGSYFIYSKLNMKTSKWEKTDSFSCNVRHEGLKNNYLKKTISRSPGK
light: MRFSAQLLGLLVLWIPGSTADIVMTQAAFSNPVTLGTSASISCRSSKSLLQRNGITYLYWYLQKPGQSPQLLIYRLSNLASGVPDRFSSSGSGTDFTLRISRVEAEDVGVYYCGQDLELPYTFGGGTKLEIKRADAAPTVSIFPPSSEQLTSGGASVVCFLNNFYPKDINVKWKIDGSERQNGVLNSWTDQDSKDSTYSMSSTLTLTKDEYERHNSYTCEATHKTSTSPIVKSFNRNEC
B2: 178K 1F4 mAb: mouse monoclonal antibody raised against E1-KLH (56); IgG2b, κ; heavy chain SEQ ID NO 85, light chain SEQ ID NO 109 (antibody)
heavy: B1 heavy with K32R, T47I, G73V, A77T, P80T, F87L, D92N, S103N, M112I, Y123F
light: B1 light with Q51H, R52S, R75Q, L76M, T122S
B3: 178K 1E11 mAb: mouse monoclonal antibody raised against E1-KLH (56); IgG2b, κ; heavy chain SEQ ID NO 183, light chain SEQ ID NO 185 (antibody)
heavy: B1 heavy with L30F, T49S, A77T, S103N, E108D, M112I, A116S, N120Y
light: B1 light with Y59H, L76M, D85E
B4: 178K 4E11 mAb: mouse monoclonal antibody raised against E1-KLH (56); IgG2b, κ; heavy chain SEQ ID NO 89, light chain SEQ ID NO 113 (antibody)
heavy: B1 heavy with T49S, K62M, A77T, S103N, M112I
light: B1 light with L76M
B5: 178H 4B1 mAb: mouse monoclonal antibody raised against E1-KLH (56); IgG2b, κ; heavy chain SEQ ID NO 83, light chain SEQ ID NO 107 (antibody)
heavy: MNFGLSLIFLALILKGLQCEVQLVESGGDLVKPGGSLKLSCAASGFTFSRNVMSWVRQTPDKRLEWVATISSGGVHTYYLDSVKGRFTIFRDNAKNTLYLQMNSLQSEDTAMYYCAAGNALDYWGQGTSVTVSSAKTTPPSVYPLAPGCGDTTGSSVTLGCLVKGYFPESVTVTWNSGSLSSSVHTFPALLQSGLYTMSSSVTVPSSTWPSQTVTCSVAHPASSTTVDKKLEPSGPISTINPCPPCKECHKCPAPNLEGGPSVFIFPPNIKDVLMISLTPKVTCVVVDVSEDDPDVRISWFVNNVEVHTAQTQTHREDYNSTIRVVSALPIQHQDWMSGKEFKCKVNNKDLPSPIERTISKIKGLVRAPQVYILPPPAEQLSRKDVSLTCLVVGFNPGDISVEWTSNGHTEENYKDTAPVLDSDGSYFIYSKLDIKTSKWEKTDSFSCNVRHEGLKNYYLKKTISRSPGK
light: B1 light with V23M, A39G, Q51H, R52S, R75Q, L76M, T122S, G125S

Test system: not listed separately
Test: Competitive ELISA of purified antibodies on E1-OVA (55), amphetamine and methamphetamine cross reactivity
Type: binding
Settings: not given
Method: (§1) Competitive ELISA was used to assess the presence of anti-Ecstasy-class antibodies in animal sera, hybridoma supernatants, and monoclonal antibody (mAb) samples as well as to estimate the level of antibody cross reactivity to amphetamine (Amph) and methamphetamine (mAmph). Antisera and antibody samples were used at the dilution giving a response of about OD=1 at 650 nm (OD650 nm) in an indirect ELISA. Hybridoma supernatants were diluted 1:2 in PBS. (±)-MDMA, (±)-MDA, (±)-amphetamine, and (±)-methamphetamine were used as inhibitors (Cerilliant Corporation, Round Rock, TX). Microtiter ELISA plates were coated and blocked as described above for indirect ELISA. The inhibitors were serially diluted in PBS. 25 μL of the diluted inhibitor was mixed with 25 μL of fixed appropriate antiserum or antibody sample dilution. The mixture was incubated over the E1-OVA (55) solid phase for 1 h. The plates were washed as described above and the bound antibodies were detected with anti-rabbit or anti-mouse IgG HRP-conjugates and TMB substrate as described above.
(§2) The anti-ecstasy class mAbs were purified from clarified and filtered hybridoma culture supernatants on a recombinant Protein A Sepharose Fast Flow (GE Life Sciences, Boston USA), dialyzed against PBS containing 0.02% sodium azide and stored at 4° C. The purified mAbs were tested for MDA and MDMA reactivity as well as amphetamine (Amph) and methamphetamine (mAmph) cross reactivity in a competitive assay.

Molecule | cross reactivity in the presence of 1,000 ng/ml of Amph or mAmph
B1 | do not show any significant cross reactivity
B2 | do not show any significant cross reactivity
B3 | do not show any significant cross reactivity
B4 | do not show any significant cross reactivity

Test system: E1-OVA (55)
Test: ELISA binding of hybridoma supernatant to E1-OVA (55) coated plates, without inhibitor
Settings: hybridoma supernatant mixed with PBS alone
Method: All ELISA steps were performed at rt. Wells of a Nunc Maxi-Sorp™ flat-bottom ELISA plates (ThermoFisher Scientific, Waltham, MA) were coated with 50 μL E1-OVA (55), E2-OVA (65), and E3-OVA (72) at a concentration of 1 μg/mL in PBS for 1 h. The plates were flicked dried and remaining binding sites were blocked with 200 μL per well of blocking solution (0.5% casein, 0.05% (v/v) Tween 20 in PBS) for one hour. Plates were washed six times with MilliQ water containing 0.05% (v/v) Tween 20 on Biotek 405 LS plate washer equipped with microplate Biostacker 3 (Biotek, Winooski, VT). 50 μL of serially diluted antibody samples (serial dilutions of serum, hybridoma supernatant, or monoclonal antibodies in PBS) were added to each well and incubated for one hour. Unbound antibodies were removed by washing as described above, and 50 μL of secondary goat anti-rabbit IgG HRP or goat anti-mouse IgG (Fc)-HRP conjugate (ThermoFisher Scientific, USA), diluted 1:3,000 in the blocking solution was added to each well for detection bound rabbit or mouse antibody, respectively. Plates were incubated for one hour, washed and 100 μL of TMB substrate (Moss, Pasadena, MD) was added for 15 min to determine bound peroxidase. Optical density (OD) of the samples at 650 nm was measured using an ELISA plate reader (Molecular Devices LLC., San Jose, CA). The titer of each serum sample was designated as the maximum dilution that yielded at least twice the absorbance of the same dilution of the nonimmune control serum.
(§3) The supernatants were screened in a competitive ELISA for the presence of anti-ecstasy compound monoclonal antibodies (mAbs) as follows. 25 μL of the hybridoma supernatant was mixed with equal volume of PBS alone or containing 20 μg/mL inhibitor (MDA or MDMA) were incubated for 1 h in the wells of E1-OVA (55) coated ELISA plates. The plates were washed and the presence of bound mAbs were detected using goat anti-mouse IgG (Fc)-HRP conjugate and TMB substrate as described above. The level of inhibition of mAb/E1-OVA (55) binding in the presence of the inhibitor was estimated using a Percent (%) Inhibition calculated by the below formula:
[formula] • where “OD650 nm w/o Inhibitor” is the binding response of the antibody sample diluted in PBS alone (with no inhibitor), and the “OD650 nm with Inhibitor” is the binding response of the same antibody sample in the presence of 10 μg/mL of inhibitor (i.e., MDA or MDMA). […]

Molecule | E1-OVA (55) Binding, OD650 nm w/o inhib [OD650 nm]
B1 | 4.000
B2 | 3.012
B3 | 3.390
B4 | 1.930
B5 | 3.164

Test system: not listed separately
Test: Competitive ELISA screening of hybridoma supernatants on E1-OVA (55), inhibitor MDMA
Type: binding
Settings: hybridoma supernatant in the presence of 10 μg/mL MDMA
Method: as §1, §3
(§4) [formula] • where “OD650 nm w/o Inhibitor” is the binding response of the antibody sample diluted in PBS alone (with no inhibitor), and the “OD650 nm with Inhibitor” is the binding response of the same antibody sample in the presence of 10 μg/mL of inhibitor (i.e., MDA or MDMA).

Molecule | E1-OVA (55) Binding, OD650 nm +MDMA [OD650 nm]
B1 | 0.667
B2 | 0.359
B3 | 0.301
B4 | 0.088
B5 | 0.093

Same assay, conditions: inhibition of mAb/E1-OVA (55) binding

Molecule | % Inhibition by 10 μg/mL of MDMA [%]
B1 | 83
B2 | 88
B3 | 91
B4 | 95
B5 | 98

Test system: not listed separately
Test: Competitive ELISA of purified antibodies on E1-OVA (55), MDMA and MDA reactivity
Type: binding
Settings: 10,000-0.1 ng/mL range of drug concentration
Method: as §1, §2

Molecule | relative sensitivity to MDMA and MDA in competitive ELISA
B1 | bind MDMA stronger than MDA
B5 | bind MDMA stronger than MDA

Test system: not listed separately
Test: Prototype EMIT ecstasy assay, cross-reactivity with amphetamine
Type: biochemical
Settings: conjugate Compound 58; negative urine pool

Molecule | Concentrations (μg/mL) of Structurally Related Compounds Equivalent to 500 ng/mL MDMA Cutoffs, (+/−) Amph [µg/mL]
B2 | 30
B4 | 40 to 45
B5 | 40

Test system: not listed separately
Test: Competitive ELISA screening of hybridoma supernatants on E1-OVA (55), inhibitor MDA
Type: binding
Settings: hybridoma supernatant in the presence of 10 μg/mL MDA
Method: as §1, §3, §4

Molecule | E1-OVA (55) Binding, OD650 nm +MDA [OD650 nm]
B1 | 0.730
B2 | 0.254
B3 | 0.316
B4 | 0.091
B5 | 0.105

Same assay, conditions: inhibition of mAb/E1-OVA (55) binding

Molecule | % Inhibition by 10 μg/mL of MDA [%]
B1 | 82
B2 | 93
B3 | 91
B4 | 95
B5 | 97

Test system: not listed separately
Test: Prototype EMIT ecstasy assay, cross-reactivity with methamphetamine
Type: biochemical
Settings: conjugate Compound 58; negative urine pool

Molecule | Concentrations (μg/mL) of Structurally Related Compounds Equivalent to 500 ng/mL MDMA Cutoffs, (+/−) mAmph [µg/mL]
B2 | 30
B4 | 50 to 60
B5 | 40 to 50
